Consider 116 sequences from the supplement of paper PMC10724198.

± gives the standard deviation of the averaged measurements.
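Also: PSI is a weighted mean of sequencing reads over stability bins, variants kept only with over 10 reads, mCherry proximal and sfGFP distal, peptide attached via GGGS linker.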

The subject of the data set is Saccharomyces cerevisiae. The experiment in a line: protein stability index of tFT-peptide fusion (C-terminal peptide) (PSI (0-1 scale)); higher = more stable (slower turnover). The following applies: genetic background: wild type; temperature: 30 C.
Turning to KKGKEKEVKKKK, the protein stability index turned out to be 0.646 ± 0.074.

In turn, KKGKKRNKTAKQ had a protein stability index of 0.628 ± 0.062.

In turn, KKGNKYNNKRKK showed a protein stability index of 0.69 ± 0.04.

For the sequence KKGRTVEKKKGD, the protein stability index was 0.694 ± 0.0039.

With KKGSSKKKKPVE, the protein stability index came out at 0.6581 ± 0.0062.

Sequence KKHTLNENKMKE displayed a protein stability index of 0.652 ± 0.011.

In turn, KKICPDFGLLLV gave a protein stability index of 0.591 ± 0.004.

In the case of KKIEHRVLNELK, the protein stability index is 0.6288 ± 0.00069.

As for KKIKKHEKKKNK, the protein stability index turned out to be 0.721 ± 0.053.

Take KKIRKKLKKMKM: the protein stability index is 0.644 ± 0.053.

The sequence KKITTDNKKNKI yielded a protein stability index of 0.651 ± 0.067.

KKKEKKRKEEKN returned a protein stability index of 0.824 ± 0.052.

KKKIKNKTNEEK came in with a protein stability index of 0.647 ± 0.038.

On to KKKKEEKNRQES, for which the protein stability index is 0.7 ± 0.077.

On to KKKKIKKKTKKE, for which the protein stability index was found to be 0.667 ± 0.027.

Take KKKKKEQKTNQT: the protein stability index is 0.697 ± 0.022.

The sequence KKKKKHTQYKRK displayed a protein stability index of 0.6997 ± 0.0026.

The sequence KKKKKKKIRKKI displayed a protein stability index of 0.682 ± 0.029.

In turn, KKKKKKKKDNKL yielded a protein stability index of 0.781 ± 0.099.

As for KKKKKKKKHEQK, the protein stability index was found to be 0.678 ± 0.09.

For KKKKKKKKKKRK, the protein stability index was determined as 0.685 ± 0.01.

KKKKKKKKKNKK gave a protein stability index of 0.679 ± 0.048.

On to KKKKKKKKTKKR, for which the protein stability index was 0.637 ± 0.044.

Regarding KKKKKKKTQTNK, the protein stability index is 0.692 ± 0.015.

KKKKKKNKKKTQ displayed a protein stability index of 0.734 ± 0.04.

Turning to KKKKKKQKKKIQ, the protein stability index turned out to be 0.741 ± 0.05.

KKKKKNKKKTIK yielded a protein stability index of 0.6886 ± 0.0046.

As to KKKKKNKKNKKY, the protein stability index came to 0.709 ± 0.038.

In turn, KKKKKNSRKKQQ came in with a protein stability index of 0.7108 ± 0.0018.

The sequence KKKKKNTKVYNE came in with a protein stability index of 0.703 ± 0.13.

The sequence KKKKKQIKKQKK registered a protein stability index of 0.586 ± 0.02.

KKKKKQKKKKRK showed a protein stability index of 0.682 ± 0.013.

For the sequence KKKKKVKITGKK, the protein stability index was 0.766 ± 0.018.

In the case of KKKKNKQKQIET, the protein stability index stood at 0.759 ± 0.07.

Consider KKKKQKKNKKKK, for which the protein stability index is 0.6602 ± 0.0052.

Consider KKKKSKIKKKRE, for which the protein stability index was 0.665 ± 0.042.

KKKKTKKKEQKE showed a protein stability index of 0.693 ± 0.012.

In turn, KKKPKKQRKNKR returned a protein stability index of 0.684 ± 0.013.

On to KKKQKTIYRQKE, for which the protein stability index was determined as 0.64 ± 0.089.

As to KKKRKRKRSRRK, the protein stability index came to 0.639 ± 0.03.

The sequence KKKRTKKEREKK had a protein stability index of 0.6612 ± 0.0032.

In turn, KKNKKNKKKKKN registered a protein stability index of 0.63 ± 0.082.

In turn, KKPVALVESRRV yielded a protein stability index of 0.662 ± 0.055.

In turn, KKQKKKTKANKT had a protein stability index of 0.673 ± 0.041.

KKREEKKEKRKR returned a protein stability index of 0.643 ± 0.054.

On to KKRGNYKTTESN, for which the protein stability index was 0.687 ± 0.0076.

The sequence KKRILNRKKEER had a protein stability index of 0.705 ± 0.052.

With KKRMKKKTKNKN, the protein stability index came out at 0.652 ± 0.019.

With KKRNMRINSKKQ, the protein stability index amounted to 0.7 ± 0.022.

KKRRNRIKKSAK showed a protein stability index of 0.689 ± 0.14.

KKRVSKETDKVK yielded a protein stability index of 0.693 ± 0.027.

On to KKSKDKRNPKKK, for which the protein stability index was determined as 0.692 ± 0.028.

The sequence KKTKEQEGEKTE had a protein stability index of 0.679 ± 0.026.

As for KKTKKKQQGKIQ, the protein stability index came out at 0.702 ± 0.017.

Sequence KKTKNKKKQNGK came in with a protein stability index of 0.6863 ± 0.0012.

KKTPKKKHKKKR registered a protein stability index of 0.679 ± 0.12.

For the sequence KKYIEKKFNIQK, the protein stability index stood at 0.664 ± 0.03.

KKYKKKKKRARY displayed a protein stability index of 0.698 ± 0.019.

Regarding KLAHVKIKKTGK, the protein stability index stood at 0.652 ± 0.018.

For KLKIINENKLQN, the protein stability index turned out to be 0.618 ± 0.087.

The sequence KMGGKRTKKIGQ returned a protein stability index of 0.694 ± 0.086.

For the sequence KNADHPRKDEQP, the protein stability index is 0.661 ± 0.095.

The sequence KNEESTKREGHF returned a protein stability index of 0.669 ± 0.063.

KNIKENIGDKNK came in with a protein stability index of 0.646 ± 0.06.

KNKEISQIYIKN registered a protein stability index of 0.662 ± 0.027.

Sequence KNKIRLLNKTSK had a protein stability index of 0.6717 ± 0.0014.

KNKKKNTIKKNK gave a protein stability index of 0.684 ± 0.018.

As to KNKREKKKENTK, the protein stability index worked out at 0.682 ± 0.0078.

As to KNKVTRNEKGIT, the protein stability index was found to be 0.639 ± 0.047.

On to KNNKKQRNRTGE, for which the protein stability index is 0.669 ± 0.017.

Sequence KNNKSERIEKEQ displayed a protein stability index of 0.701 ± 0.08.

In turn, KNNNREKLRQSM registered a protein stability index of 0.623 ± 0.056.

In turn, KNTKRQIKKNKK showed a protein stability index of 0.662 ± 0.17.

The sequence KNWRMKKDHKQA yielded a protein stability index of 0.657 ± 0.024.

KQERCCEEREEK showed a protein stability index of 0.729 ± 0.024.

KQHTEQIDRRTG came in with a protein stability index of 0.6635 ± 0.0036.

On to KQKKAKKQKKKK, for which the protein stability index amounted to 0.69 ± 0.099.

KQKKKIKIQNKT came in with a protein stability index of 0.689 ± 0.12.

For the sequence KQKKNEENTKKT, the protein stability index worked out at 0.735 ± 0.064.

Turning to KQKKNKKKKQNR, the protein stability index was determined as 0.699 ± 0.036.

With KQLEKYKDIRRK, the protein stability index came to 0.665 ± 0.061.

On to KQNKIIKKRKKK, for which the protein stability index was determined as 0.659 ± 0.067.

In turn, KQRGTRGNKANE displayed a protein stability index of 0.6231 ± 0.0058.

For KQRKIKKNIINH, the protein stability index is 0.707 ± 0.015.

KQRKSESGSNTV showed a protein stability index of 0.686 ± 0.057.

For KREARGERGKGE, the protein stability index was 0.644 ± 0.04.

KRETKSKGQAQA showed a protein stability index of 0.602 ± 0.042.

As for KRGIHKLVNEVG, the protein stability index turned out to be 0.683 ± 0.011.

On to KRGRRKLQRGRQ, for which the protein stability index was determined as 0.679 ± 0.028.

KRGVVGFGKGGG displayed a protein stability index of 0.6654 ± 0.0027.

KRIDLDCSVAAD returned a protein stability index of 0.643 ± 0.022.

The sequence KRKAQEVNSKKK registered a protein stability index of 0.703 ± 0.011.

Turning to KRKENKKNKEKK, the protein stability index was 0.669 ± 0.042.

Regarding KRKREKKLKKYK, the protein stability index is 0.634 ± 0.037.

Consider KRLKKKRNRAKA, for which the protein stability index worked out at 0.683 ± 0.031.

On to KRLTSKVKTITG, for which the protein stability index amounted to 0.694 ± 0.031.

In turn, KRNKDYGSFEVT showed a protein stability index of 0.629 ± 0.029.

For KRRKKKKQSGGK, the protein stability index turned out to be 0.645 ± 0.023.

Regarding KRSIEIRTKIKL, the protein stability index is 0.7 ± 0.022.

In turn, KRTRRADVGKED yielded a protein stability index of 0.65 ± 0.064.

Sequence KRVGLRLCGRLT came in with a protein stability index of 0.704 ± 0.04.

Consider KRVSGSEQDIAT, for which the protein stability index was 0.6561 ± 0.0026.

Regarding KRYKSYEDKNVM, the protein stability index was found to be 0.696 ± 0.033.

KSEIRDGRFPSC: the protein stability index was determined as 0.589 ± 0.011.

KSEMAIIEKKEN yielded a protein stability index of 0.667 ± 0.055.

As for KSGVWLWVGGGG, the protein stability index was found to be 0.714 ± 0.033.

For the sequence KSKDKGEGKELK, the protein stability index is 0.694 ± 0.088.

KSKTRTKLYSRN displayed a protein stability index of 0.6421 ± 0.0017.

Sequence KSLSEKSKEKGS returned a protein stability index of 0.668 ± 0.034.

The sequence KSLYLVDDRVGR came in with a protein stability index of 0.764 ± 0.078.

In turn, KSNTGGGERNKA showed a protein stability index of 0.668 ± 0.018.

Sequence KSPYNTPLSLVL displayed a protein stability index of 0.672 ± 0.024.

Regarding KSRVCSPSNEPS, the protein stability index amounted to 0.7443 ± 0.0074.

Regarding KSYTGSRGQRVL, the protein stability index was found to be 0.701 ± 0.053.

With KTFRTYRTYFRK, the protein stability index stood at 0.682 ± 0.023.

KTKEKTKKEIQM registered a protein stability index of 0.629 ± 0.0042.
